Where a chain is given by its changes, count along the chain named.
T1: human CD131 (human, UniProt P32927 17-897)
T1 sequence: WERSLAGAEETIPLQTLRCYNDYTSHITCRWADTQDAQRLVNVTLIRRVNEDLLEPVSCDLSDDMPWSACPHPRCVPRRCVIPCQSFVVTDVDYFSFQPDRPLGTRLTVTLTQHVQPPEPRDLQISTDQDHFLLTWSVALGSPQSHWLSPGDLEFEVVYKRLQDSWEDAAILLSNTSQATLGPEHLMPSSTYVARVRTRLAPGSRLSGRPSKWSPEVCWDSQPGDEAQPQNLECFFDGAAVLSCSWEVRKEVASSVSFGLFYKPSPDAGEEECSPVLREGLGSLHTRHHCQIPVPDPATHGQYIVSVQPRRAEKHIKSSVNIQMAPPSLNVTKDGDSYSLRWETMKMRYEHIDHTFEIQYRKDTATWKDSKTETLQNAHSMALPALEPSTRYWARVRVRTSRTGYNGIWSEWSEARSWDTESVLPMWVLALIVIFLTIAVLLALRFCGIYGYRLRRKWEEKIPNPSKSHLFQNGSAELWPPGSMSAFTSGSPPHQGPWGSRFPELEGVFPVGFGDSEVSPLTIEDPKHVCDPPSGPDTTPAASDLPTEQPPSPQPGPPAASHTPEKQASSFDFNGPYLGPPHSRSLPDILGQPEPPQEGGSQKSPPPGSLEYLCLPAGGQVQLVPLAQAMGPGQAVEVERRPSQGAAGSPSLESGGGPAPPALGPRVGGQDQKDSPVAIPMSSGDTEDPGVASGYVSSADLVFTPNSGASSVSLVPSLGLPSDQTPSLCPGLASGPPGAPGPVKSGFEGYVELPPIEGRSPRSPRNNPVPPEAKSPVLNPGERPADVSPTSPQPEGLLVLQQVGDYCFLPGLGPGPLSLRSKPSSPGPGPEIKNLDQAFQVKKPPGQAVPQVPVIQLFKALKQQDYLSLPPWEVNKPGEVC

B1: 9A2-VR20 (antibody, V domains shown)
VH: EVQLLESGGGLVQPGGSLRLSCAASGFTFNHYRVHWVRQAPGKGLEWVSSIRSSGGFTYYADSVKGRFTISRDNSKNTLYLQMNSLRAEDTAVYYCARFYDSFFDIWGQGTMVTVSS
VL: DIQMTQSPSSVSASVGDRVTITCRASQGISSWLAWYQQKPGKAPKLLIYAASSLQSGVPSRFSGSGSGTDFTLTISSLQPEDFATYYCQQANSFPITFGQGTRLEIKR
B2: 9A2-VR23 (antibody, V domains shown)
VH: B1 VH with N30E, H31W
VL: B1 VL
B3: 9A2-VR4 (antibody, V domains shown)
VH: B1 VH with N30S, R33H, V34M, H35L
VL: B1 VL with S30R, S31P, W32F, L33V, A34D
B4: 9A2-VR32 (antibody, V domains shown)
VH: B1 VH with N30S, R33H, V34M, H35L, R52S, S53G, G55V, G56R, F57S
VL: B1 VL
B5: 9A2-VR38 (antibody, V domains shown)
VH: B1 VH with N30S, R33H, V34M, H35L, R52N, S53G, S54M, G56A, F57T
VL: B1 VL
B6: 9A2-VR35 (antibody, V domains shown)
VH: B1 VH with N30S, R33H, V34M, H35L, R52N, S53G, S54F, G56R, F57N
VL: B1 VL
B7: 9A2-VR47 (antibody, V domains shown)
VH: B1 VH with N30S, R33H, V34M, H35L, D101S, S102D, F103H, D105S, I106P
VL: B1 VL
B8: 9A2-VR44 (antibody, V domains shown)
VH: B1 VH with N30S, R33H, V34M, H35L, F103H
VL: B1 VL
B9: 9A2-VR43 (antibody, V domains shown)
VH: B1 VH with N30S, R33H, V34M, H35L, D101S, S102D, F103H
VL: B1 VL
B10: 9A2-VR21 (antibody, V domains shown)
VH: B1 VH with N30M
VL: B1 VL
B11: 9A2-VR2 (antibody, V domains shown)
VH: B1 VH with N30S, R33H, V34M, H35L
VL: B1 VL with I29Q, S30R, S31P, W32F, L33V, A34S
B12: 9A2-VR45 (antibody, V domains shown)
VH: B1 VH with N30S, R33H, V34M, H35L, D101S, S102D, F103N
VL: B1 VL
B13: 9A2-VR50 (antibody, V domains shown)
VH: B1 VH with N30S, R33H, V34M, H35L, D101S, S102D, F103H, D105A, I106P
VL: B1 VL
B14: 9A2-VR1 (antibody, V domains shown)
VH: B1 VH with N30S, R33H, V34M, H35L
VL: B1 VL with S30R, S31P, W32F, L33M
B15: 9A2-VR33 (antibody, V domains shown)
VH: B1 VH with N30S, R33H, V34M, H35L, R52N, S53G, G56W, F57T
VL: B1 VL
B16: 9A2-VR3 (antibody, V domains shown)
VH: B1 VH with N30S, R33H, V34M, H35L
VL: B1 VL with I29L, S30R, S31P, W32F, L33V, A34N
B17: 9A2-VR36 (antibody, V domains shown)
VH: B1 VH with N30S, R33H, V34M, H35L, R52G, S53G, S54D, G55K, G56R, F57Q
VL: B1 VL
B18: 9A2-VR31 (antibody, V domains shown)
VH: B1 VH with N30S, R33H, V34M, H35L, R52S, S53G, S54A, G55Q, G56W, F57S
VL: B1 VL
B19: 9A2-VR22 (antibody, V domains shown)
VH: B1 VH with N30Q, H31W
VL: B1 VL
B20: 9A2-VR27 (antibody, V domains shown)
VH: B1 VH with N30T
VL: B1 VL
B21: 9A2-VR41 (antibody, V domains shown)
VH: B1 VH with N30S, R33H, V34M, H35L, R52N, S53G, S54K, G56W, F57T
VL: B1 VL
B22: 9A2-VR48 (antibody, V domains shown)
VH: B1 VH with N30S, R33H, V34M, H35L, D101S, S102D, F103H, D105K, I106P
VL: B1 VL
B23: 9A2-VR37 (antibody, V domains shown)
VH: B1 VH with N30S, R33H, V34M, H35L, R52S, S53G, G55M, G56W, F57S
VL: B1 VL
B24: 9A2-VR28 (antibody, V domains shown)
VH: B1 VH with N30V
VL: B1 VL
B25: 9A2-VR46 (antibody, V domains shown)
VH: B1 VH with N30S, R33H, V34M, H35L, D101S, S102D, F103H, D105R, I106E
VL: B1 VL
B26: 9A2-VR26 (antibody, V domains shown)
VH: B1 VH with N30I
VL: B1 VL
B27: 9A2-VR42 (antibody, V domains shown)
VH: B1 VH with N30S, R33H, V34M, H35L, R52G, S53G, S54D, G55I, G56R, F57Q
VL: B1 VL
B28: 9A2-VR34 (antibody, V domains shown)
VH: B1 VH with N30S, R33H, V34M, H35L, R52S, S53G, G55H, G56F, F57P
VL: B1 VL
B29: 9A2-VR49 (antibody, V domains shown)
VH: B1 VH with N30S, R33H, V34M, H35L, D101S, S102D, F103H, D105N, I106P
VL: B1 VL
B30: 9A2-VR40 (antibody, V domains shown)
VH: B1 VH with N30S, R33H, V34M, H35L, R52N, S53G, S54Y, G56I, F57Q
VL: B1 VL

What follows are binders tested against T1, human CD131 (assay: cell-based or functional assay).

Row | IC50 GM-CSF, TF-1 proliferation [nM] | pStat5 IC50 GM-CSF, TF-1 bla reporter [nM] | Binder
1 | 79.3 | – | B1
2 | 60 | 24 | B2
3 | 122 | – | B3
4 | 31.2 | – | B4
5 | 5 | – | B5
6 | 76 | – | B6
7 | 27.2 | – | B7
8 | 36.4 | – | B8
9 | 53.7 | – | B9
10 | 99.8 | – | B10
11 | 444 | – | B11
12 | 88.7 | – | B12
13 | 46.5 | – | B13
14 | 294 | – | B14
15 | 602 | – | B15
16 | 101 | – | B16
17 | 38.1 | – | B17
18 | 233 | – | B18
19 | 39.9 | – | B19
20 | 4.9 | 8.5 | B20
21 | 7 | – | B21
22 | 11.7 | – | B22
23 | 48.1 | – | B23
24 | 47.9 | – | B24
25 | 23.4 | – | B25
26 | 4.6 | 23.6 | B26
27 | 54.7 | – | B27
28 | 184 | – | B28
29 | 23.4 | – | B29
30 | 5.7 | – | B30

From US20190062438A1 (CSL, published 2019)
